Measurements: article doi:10.1101/476960
Like-named read-outs stand apart in the source and are kept apart here.

B1: strong-sup miR-122 / 2 nt bridge (mixed)
RNA 1: UGGAGUGUGACAGCGGCGAAAG
RNA 2: CCGCAAACACUCCUAA
modifications: 5' phosphate on guide
B2: strong-sup miR-122 / 1 nt bridge (mixed)
RNA 1: UGGAGUGUGACAGCGGCGAAAG
RNA 2: CCGCAACACUCCUAA
modifications: 5' phosphate on guide
B3: weak-sup miR-122 / 10 nt bridge (mixed)
RNA 1: UGGAGUGUGACACUAUCGAAAG
RNA 2: AUAGAAAAAAAAAAACACUCCUAA
modifications: 5' phosphate on guide
B4: strong-sup miR-122 / 15 nt bridge (mixed)
RNA 1: UGGAGUGUGACAGCGGCGAAAG
RNA 2: CCGCAAAAAAAAAAAAAAAACACUCCUAA
modifications: 5' phosphate on guide
B5: miR-122 21mer / 2-16 perfect target (mixed)
RNA 1: UGGAGUGUGACAAUGGUGUUU
RNA 2: CCAUUGUCACACUCCAAA
modifications: 5' phosphate on guide
B6: EV2 guide / g13-g14 target (mixed)
RNA 1: UGGAGUGUGACACCGGCGAAAG
RNA 2: GGCAAAACACUCCUAA
modifications: 5' phosphate on guide
B7: weak-sup miR-122 / 4 nt bridge (mixed)
RNA 1: UGGAGUGUGACACUAUCGAAAG
RNA 2: AUAGAAAAACACUCCUAA
modifications: 5' phosphate on guide
B8: strong-sup miR-122 / 4 nt bridge (mixed)
RNA 1: UGGAGUGUGACAGCGGCGAAAG
RNA 2: CCGCAAAAACACUCCUAA
modifications: 5' phosphate on guide

Tests used:
[1] = target: T1, Ago2 (Homo sapiens, UniProt Q9UKV8 1-859); experiment: filter binding
[2] = target: T1, Ago2; experiment: filter binding; remark: listed apart in the source
[3] = target: Ago2 D669A (Homo sapiens, UniProt Q9UKV8 1-859, D669A); experiment: X-ray crystallography
[4] = target: T1, Ago2; experiment: filter binding; remark: listed apart in the source

T1 sequence (Q9UKV8 whole entry): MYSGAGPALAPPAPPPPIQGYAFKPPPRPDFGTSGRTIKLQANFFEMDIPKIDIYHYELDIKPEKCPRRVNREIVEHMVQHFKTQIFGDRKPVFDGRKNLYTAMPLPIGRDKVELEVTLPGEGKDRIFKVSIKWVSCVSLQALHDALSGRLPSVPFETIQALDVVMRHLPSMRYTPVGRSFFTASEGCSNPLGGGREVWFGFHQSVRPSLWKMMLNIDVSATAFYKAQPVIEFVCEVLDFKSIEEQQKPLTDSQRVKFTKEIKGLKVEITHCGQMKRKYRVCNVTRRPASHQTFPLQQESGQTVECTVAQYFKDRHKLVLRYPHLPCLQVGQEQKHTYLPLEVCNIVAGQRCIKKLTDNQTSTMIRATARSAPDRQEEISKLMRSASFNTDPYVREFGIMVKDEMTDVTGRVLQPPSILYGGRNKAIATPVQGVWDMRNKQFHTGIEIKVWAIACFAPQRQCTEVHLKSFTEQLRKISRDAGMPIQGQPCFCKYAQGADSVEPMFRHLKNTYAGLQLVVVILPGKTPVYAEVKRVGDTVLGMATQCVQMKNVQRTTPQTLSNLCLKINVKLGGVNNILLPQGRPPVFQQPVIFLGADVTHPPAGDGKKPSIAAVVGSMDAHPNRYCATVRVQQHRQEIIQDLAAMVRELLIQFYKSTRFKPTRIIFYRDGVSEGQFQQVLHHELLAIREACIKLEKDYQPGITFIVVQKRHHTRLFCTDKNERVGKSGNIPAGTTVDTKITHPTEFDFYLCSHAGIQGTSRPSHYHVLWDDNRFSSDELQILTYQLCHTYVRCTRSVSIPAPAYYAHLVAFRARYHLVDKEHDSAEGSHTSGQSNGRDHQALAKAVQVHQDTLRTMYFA
Sequence of Ago2 D669A (Q9UKV8 whole entry D669A): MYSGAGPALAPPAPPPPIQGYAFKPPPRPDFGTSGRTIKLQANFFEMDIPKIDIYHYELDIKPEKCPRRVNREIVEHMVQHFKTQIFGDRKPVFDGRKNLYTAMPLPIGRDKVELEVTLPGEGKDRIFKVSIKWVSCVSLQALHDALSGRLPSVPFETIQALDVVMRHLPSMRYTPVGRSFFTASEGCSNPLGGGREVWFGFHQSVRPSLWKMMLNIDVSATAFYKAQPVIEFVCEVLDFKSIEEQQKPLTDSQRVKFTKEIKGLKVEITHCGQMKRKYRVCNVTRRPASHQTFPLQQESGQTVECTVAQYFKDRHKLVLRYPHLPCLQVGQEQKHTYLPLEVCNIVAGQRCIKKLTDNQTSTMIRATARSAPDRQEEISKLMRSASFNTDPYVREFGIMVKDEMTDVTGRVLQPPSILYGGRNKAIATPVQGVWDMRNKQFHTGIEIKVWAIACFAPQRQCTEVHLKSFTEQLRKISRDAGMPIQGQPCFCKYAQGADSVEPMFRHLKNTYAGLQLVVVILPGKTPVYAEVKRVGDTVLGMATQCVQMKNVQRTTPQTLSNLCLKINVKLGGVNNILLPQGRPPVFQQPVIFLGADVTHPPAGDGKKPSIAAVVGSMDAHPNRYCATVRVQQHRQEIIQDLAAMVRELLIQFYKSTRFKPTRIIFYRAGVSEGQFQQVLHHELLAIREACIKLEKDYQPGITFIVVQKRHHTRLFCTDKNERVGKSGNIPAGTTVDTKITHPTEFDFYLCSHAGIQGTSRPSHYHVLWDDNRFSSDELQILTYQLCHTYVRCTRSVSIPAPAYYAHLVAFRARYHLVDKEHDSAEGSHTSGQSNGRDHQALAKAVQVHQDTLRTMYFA

Binder | binding signal [1] | further results
B1 | > 20 fold affinity vs seed-only N7 | –
B2 | > 10 fold affinity vs seed-only N7 | –
B3 | – | binding signal [2]: 1.9 fold affinity vs seed-only N2
B4 | > 10 fold affinity vs seed-only N7 | –
B5 | – | binding result [3]: binds
B6 | – | binding signal [4]: > 3.5 fold affinity vs seed-only N13
B7 | – | binding signal [2]: > 10 fold affinity vs seed-only N2
B8 | > 20 fold affinity vs seed-only N7 | –
